Tests used:
[1] = target: PP1alpha 7-330 (Homo sapiens) (UniProt P62136); assay: SPR; settings: cited from earlier work
[2] = target: T1, PP1α_(1-330) (UniProt P62136 1-330); assay: NMR titration; 2D [1H,15N] HSQC of 15N-labelled I3_(1-126) free and in complex; loss of cross-peaks on binding; 283 K, 20 mM Bis-Tris pH 6.8, 500 mM NaCl, 0.5 mM TCEP; settings: both partners purified
T1 construct: Protein phosphatase 1 alpha catalytic subunit (PP1α), residues 1-330; also called Protein Phosphatase 1
T1 sequence (P62136 whole entry, the tested form may be a part): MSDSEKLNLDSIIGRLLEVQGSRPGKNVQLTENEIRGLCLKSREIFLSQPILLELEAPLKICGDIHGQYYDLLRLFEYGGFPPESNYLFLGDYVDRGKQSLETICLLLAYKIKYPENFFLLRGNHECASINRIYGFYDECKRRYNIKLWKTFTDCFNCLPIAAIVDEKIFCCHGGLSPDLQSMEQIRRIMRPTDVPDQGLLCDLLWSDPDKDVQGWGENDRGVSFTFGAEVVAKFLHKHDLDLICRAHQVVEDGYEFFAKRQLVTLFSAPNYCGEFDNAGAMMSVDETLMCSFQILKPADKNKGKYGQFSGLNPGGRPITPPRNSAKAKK

[3] = target: T2, SDS22_(56-360):PP1α_(7-330) complex (UniProt Q15435 56-360; P62136 7-330); assay: SPR; His6-PP1 constructs or SDS22_(56-360):PP1α_(7-330) captured on a Ni-NTA chip (NiHC200M), I3 and variants injected; 25 °C; 20 mM Tris pH 8.0, 500 mM NaCl, 0.5 mM TCEP, 0.05% Tween-20; one-to-one one-state or two-state fit; settings: both partners purified
T2 construct: SDS22 (PPP1R7), residues 56-360; Protein phosphatase 1 alpha catalytic subunit (PP1α), residues 7-330; PP1 in this complex lacks the M1 metal; The same complex treated with EDTA (M2 metal extracted) is kept as this molecule and told apart by assay a4; the His6 tag of SDS22 was cleaved, so it is probably His6-PP1; also called SDS22:PP1; SDS22:PP1_(M2-metal-free) / metal-free …
T2 sequence (Q15435 56-360, chain 1 of 2): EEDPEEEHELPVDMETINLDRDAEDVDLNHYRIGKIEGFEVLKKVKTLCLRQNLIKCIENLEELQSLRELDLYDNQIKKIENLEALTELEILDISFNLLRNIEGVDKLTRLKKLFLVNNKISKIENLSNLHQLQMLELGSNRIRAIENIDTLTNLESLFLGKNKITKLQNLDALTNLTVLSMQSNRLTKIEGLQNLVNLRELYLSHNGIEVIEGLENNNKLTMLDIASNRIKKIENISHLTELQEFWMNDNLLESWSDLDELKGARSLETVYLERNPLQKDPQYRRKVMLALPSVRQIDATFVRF
T2 sequence (P62136 7-330, chain 2 of 2): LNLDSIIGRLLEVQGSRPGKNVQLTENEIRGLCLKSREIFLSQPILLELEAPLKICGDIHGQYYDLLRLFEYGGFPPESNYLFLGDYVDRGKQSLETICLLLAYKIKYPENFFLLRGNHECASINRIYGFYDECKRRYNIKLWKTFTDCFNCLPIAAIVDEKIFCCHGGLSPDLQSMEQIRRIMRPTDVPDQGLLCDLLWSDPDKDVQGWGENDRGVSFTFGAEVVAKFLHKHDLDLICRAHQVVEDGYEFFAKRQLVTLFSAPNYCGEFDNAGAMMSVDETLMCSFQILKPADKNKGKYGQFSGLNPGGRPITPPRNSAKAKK

Chain of PP1alpha 7-330 (Homo sapiens) (P62136 7-330): as the sequence (P62136 7-330, chain 2 of 2) above

| binding result [2] | Kd [3] | Molecule | Kd [1] |
| --- | --- | --- | --- |
| – | – | I3 1-126 (from UniProt O60927) | 10 nM |
| – | – | I3 27-68 (from UniProt O60927) | 10 nM |
| binds | 132 ± 5 nM | Inhibitor-3 (I3), I3_(1-126) (natural protein, human, UniProt O60927 1-126, looked up, 15N-labelled in the NMR experiments, unlabelled in SPR; also called FL I3; PPP1R11; source: E. coli BL21 (DE3), purified (Ni-NTA, TEV, heat 95 °C, SEC); not shown: His6, N-terminal, cleaved; MBP, N-terminal, cleaved) MAEAGAGLSETVTETTVTVTTEPENRSLTIKLRKRKPEKKVEWTSDTVDNEHMGRRSSKCCCIYEKPRAFGESSTESDEEEEEGCGHTHCVRGHRKGRRRATLGPTPTTPPQPPDPSQPPPGPMQH | – |
| – | 400 ± 44 nM | I3_(1-126) C60S/C61S/C62S (natural protein, human, UniProt O60927 1-126, looked up, also called I3_(1-126) SSS; I3 SSS; source: E. coli BL21 (DE3), purified (Ni-NTA, TEV, heat 95 °C, SEC); not shown: His6, N-terminal, cleaved; MBP, N-terminal, cleaved) MAEAGAGLSETVTETTVTVTTEPENRSLTIKLRKRKPEKKVEWTSDTVDNEHMGRRSSKSSSIYEKPRAFGESSTESDEEEEEGCGHTHCVRGHRKGRRRATLGPTPTTPPQPPDPSQPPPGPMQH | – |
